Laboratory results as given in article PMC5944358 (The Biochemical journal, 2018).
Where two headings read alike, the source gives them in different places.

What was measured:
[1] = target: T1, HIV-1 YU2 gp120 (HIV-1 YU2, UniProt P35961 32-498); experiment: ELISA
[2] = target: T1, HIV-1 YU2 gp120; experiment: ITC
[3] = target: T1, HIV-1 YU2 gp120; experiment: SPR
[4] = target: T1, HIV-1 YU2 gp120; experiment: SPR; remark: listed apart in the source

Binder | IC50 [1] | Kd [2] | stoichiometry N [2] | Kd [3] | koff [4] | kon [4] | Kd [4] | k1 (step 1, association) [4] | k2 (step 2, forward) [4] | k-1 (step 1, dissociation) [4] | k-2 (step 2, reverse) [4] | koff [3] | kon [3]
Microvirin (MVN) (natural protein) MPNFSHTCSSINYDPDSTILSAECQARDGEWLPTELRLSDHIGNIDGELQFGDQNFQETCQDCHLEFGDGEQSVWLVCTCQTMDGEWKSTQILLDSQIDNNDSQLEIG | 68 ± 8 nM | 225 ± 10 nM | 1.29 ± 0.04 protein:gp120 | 120 nM | 0.000445 s⁻¹ | 4160 M⁻¹ s⁻¹ | – | – | – | – | – | – | –
MVN_Q81K (natural protein) MPNFSHTCSSINYDPDSTILSAECQARDGEWLPTELRLSDHIGNIDGELQFGDQNFQETCQDCHLEFGDGEQSVWLVCTCKTMDGEWKSTQILLDSQIDNNDSQLEIG | – | – | – | – | 0.000368 s⁻¹ | 9180 M⁻¹ s⁻¹ | 45 nM | 1.73e+06 M⁻¹ s⁻¹ | 0.0048 M⁻¹ s⁻¹ | 0.16 s⁻¹ | 0.0023 s⁻¹ | – | –
MVN_Q81K/M83R/G85Q (natural protein) MPNFSHTCSSINYDPDSTILSAECQARDGEWLPTELRLSDHIGNIDGELQFGDQNFQETCQDCHLEFGDGEQSVWLVCTCKTRDQEWKSTQILLDSQIDNNDSQLEIG | – | – | – | – | 0.000232 s⁻¹ | 3240 M⁻¹ s⁻¹ | 77 nM | 340000 M⁻¹ s⁻¹ | 0.0055 M⁻¹ s⁻¹ | 0.058 s⁻¹ | 0.0041 s⁻¹ | – | –
MVN_G85Q (natural protein) MPNFSHTCSSINYDPDSTILSAECQARDGEWLPTELRLSDHIGNIDGELQFGDQNFQETCQDCHLEFGDGEQSVWLVCTCQTMDQEWKSTQILLDSQIDNNDSQLEIG | – | – | – | – | 0.000191 s⁻¹ | 2960 M⁻¹ s⁻¹ | 72 nM | 290000 M⁻¹ s⁻¹ | 0.0089 M⁻¹ s⁻¹ | 0.071 s⁻¹ | 0.0027 s⁻¹ | – | –
MVN_G43E/Q81K (natural protein) MPNFSHTCSSINYDPDSTILSAECQARDGEWLPTELRLSDHIENIDGELQFGDQNFQETCQDCHLEFGDGEQSVWLVCTCKTMDGEWKSTQILLDSQIDNNDSQLEIG | – | – | – | – | 0.000173 s⁻¹ | 1660 M⁻¹ s⁻¹ | 120 nM | 180000 M⁻¹ s⁻¹ | 0.0082 M⁻¹ s⁻¹ | 0.064 s⁻¹ | 0.0027 s⁻¹ | – | –
MVN_G43E/M83R (natural protein) MPNFSHTCSSINYDPDSTILSAECQARDGEWLPTELRLSDHIENIDGELQFGDQNFQETCQDCHLEFGDGEQSVWLVCTCQTRDGEWKSTQILLDSQIDNNDSQLEIG | – | – | – | – | 0.000103 s⁻¹ | 980 M⁻¹ s⁻¹ | 130 nM | 110000 M⁻¹ s⁻¹ | 0.0075 M⁻¹ s⁻¹ | 0.045 s⁻¹ | 0.0023 s⁻¹ | – | –
MVN_G43E/Q81K/M83R/G85Q (natural protein) MPNFSHTCSSINYDPDSTILSAECQARDGEWLPTELRLSDHIENIDGELQFGDQNFQETCQDCHLEFGDGEQSVWLVCTCKTRDQEWKSTQILLDSQIDNNDSQLEIG | – | – | – | – | 0.000156 s⁻¹ | 1490 M⁻¹ s⁻¹ | 100 nM | 240000 M⁻¹ s⁻¹ | 0.0063 M⁻¹ s⁻¹ | 0.078 s⁻¹ | 0.002 s⁻¹ | – | –
MVN(Q81K/M83R) (natural protein) MPNFSHTCSSINYDPDSTILSAECQARDGEWLPTELRLSDHIGNIDGELQFGDQNFQETCQDCHLEFGDGEQSVWLVCTCKTRDGEWKSTQILLDSQIDNNDSQLEIG | – | 75 ± 11 nM | 1.31 ± 0.132 protein:gp120 | – | 3.3e-05 s⁻¹ | 1880 M⁻¹ s⁻¹ | 21 nM | 310000 M⁻¹ s⁻¹ | 0.0051 M⁻¹ s⁻¹ | 0.03 s⁻¹ | 0.0011 s⁻¹ | – | –
MVN_G43E/G85Q (natural protein) MPNFSHTCSSINYDPDSTILSAECQARDGEWLPTELRLSDHIENIDGELQFGDQNFQETCQDCHLEFGDGEQSVWLVCTCQTMDQEWKSTQILLDSQIDNNDSQLEIG | – | – | – | – | 0.000122 s⁻¹ | 710 M⁻¹ s⁻¹ | 180 nM | 90000 M⁻¹ s⁻¹ | 0.0077 M⁻¹ s⁻¹ | 0.051 s⁻¹ | 0.0024 s⁻¹ | – | –
MVN_G43E (natural protein) MPNFSHTCSSINYDPDSTILSAECQARDGEWLPTELRLSDHIENIDGELQFGDQNFQETCQDCHLEFGDGEQSVWLVCTCQTMDGEWKSTQILLDSQIDNNDSQLEIG | – | – | – | – | 0.00061 s⁻¹ | 2020 M⁻¹ s⁻¹ | 360 nM | 340000 M⁻¹ s⁻¹ | 0.0049 M⁻¹ s⁻¹ | 0.244 s⁻¹ | 0.0025 s⁻¹ | – | –
MVN_Q81K/G85Q (natural protein) MPNFSHTCSSINYDPDSTILSAECQARDGEWLPTELRLSDHIGNIDGELQFGDQNFQETCQDCHLEFGDGEQSVWLVCTCKTMDQEWKSTQILLDSQIDNNDSQLEIG | – | – | – | – | 9.4e-05 s⁻¹ | 880 M⁻¹ s⁻¹ | 101 nM | 160000 M⁻¹ s⁻¹ | 0.0041 M⁻¹ s⁻¹ | 0.053 s⁻¹ | 0.00178 s⁻¹ | – | –
MVN_M83R (natural protein) MPNFSHTCSSINYDPDSTILSAECQARDGEWLPTELRLSDHIGNIDGELQFGDQNFQETCQDCHLEFGDGEQSVWLVCTCQTRDGEWKSTQILLDSQIDNNDSQLEIG | – | – | – | – | 0.000145 s⁻¹ | 2990 M⁻¹ s⁻¹ | 52 nM | 290000 M⁻¹ s⁻¹ | 0.0076 M⁻¹ s⁻¹ | 0.05 s⁻¹ | 0.0029 s⁻¹ | – | –
cyanovirin-N (CVN) (natural protein) LGKFSQTCYNSAIQGSVLTSTCERTNGGYNTSSIDLNSVIENVDGSLKWQPSNFIETCRNTQLAGSSELAAECKTRAQQFVSTKINLDDHIANIDGTLKYE | – | – | – | 8.65 nM | – | – | – | – | – | – | – | 1.48e-05 s⁻¹ | 1710 M⁻¹ s⁻¹
